Assay results as given in US20140342918.

System: Vesicular stomatitis virus (whole virion) (Vesicular stomatitis virus)

Sequence: CTCCTCTGACTGTAACCACGCGCCCTCAGAACTTTTGTATCCGAACACCTGCATCGTCCGGGCTTCTGGACTACCTATGC [SwAp1]
- binding signal (ohm (RCTV-RCTB)): 1040

Sequence: CTCCTCTGACTGTAACCACGGCACCCCGAGGCAATTTCGCGCATAGTTCATCCTGTTTGGGGCTTCTGGACTACCTATGC [SwAp15]
- binding signal (ohm (RCTV-RCTB)): 930

Sequence: CTCCTCTGACTGTAACCACGNNNNNNNNNNNNNNNNNNNNNNNNNNNNNNNNNNNNNNNGGCTTCTGGACTACCTATGC [Pool 10]
- binding signal (ohm (RCTV-RCTB)): 182

Sequence: CTCCTCTGACTGTAACCACGTACCACCCGTGACCCTCACATCCCTCCTCTGACGTAACCACGCGGGCTTCTGGACTACCTATGC [SwAp8]
- binding signal (ohm (RCTV-RCTB)): 1680

Sequence: CTCCTCTGACTGTAACCACGTACCACCCGTGACCCTCACATCCCTCCTCTGTTCTCCGCGGGCTTCTGGACTACCTATGC [SwAp5]
- binding signal (ohm (RCTV-RCTB)): 838

Sequence: CTCCTCTGACTGTAACCACGTACCACCCGTGACCCTCACATCCCTCCTCTGTTCTCCGCGGGCTTCTGGACTACCTATGC [SwAp13]
- binding signal (ohm (RCTV-RCTB)): 1980

Sequence: CTCCTCTGACTGTAACCACGTACCACCCGTGACCCTTACATCCCTCCTCTGTTCTCCGCGGGCTTCTGGACTACCTATGC [SwAp12]
- binding signal (ohm (RCTV-RCTB)): 2180

Sequence: CTCCTCTGACTGTAACCACGTACCACCCGTGACGCGCACATCCCTCCTCTGTTCTCCGCGGGCTTCTGGACTACCTATGC [SwAp2]
- binding signal (ohm (RCTV-RCTB)): 1420

Sequence: CTCCTCTGACTGTAACCACGTACCACCCGTGGCCCTCACATCCCTCCTCTGTTCTCCGCGGGCTTCTGGACTACCTATGC [SwAp7]
- binding signal (ohm (RCTV-RCTB)): 1770

Sequence: CTCCTCTGACTGTAACCACGTACCACCCGTGGCCCTCACATCCCTCCTCTGTTCTCCGCGGGCTTCTGGACTACCTATGC [SwAp9]
- binding signal (ohm (RCTV-RCTB)): 1180

Sequence: CTCCTCTGACTGTAACCACGTACCACCCTTGACCCTCACATCCCTCCTCTGTTCTCCGCGGGCTTCTGGACTACCTATGC [SwAp14]
- binding signal (ohm (RCTV-RCTB)): 709

Sequence: CTCCTCTGACTGTAACCACGTACCGCCCGTGACCCTCACATCCCTCCTCTGTTCTCCGCGGGCTTCTGGACTACCTATGC [SwAp10]
- binding signal (ohm (RCTV-RCTB)): 3720

Sequence: CTCCTCTGACTGTAACCACGTGCCCCCTCCATCCCGAGTAACCTACGTCCATGTCTCGCTGGCTTCTGGACTACCTATGC [SwAp3]
- binding signal (ohm (RCTV-RCTB)): 803

Sequence: CTCCTCTGACTGTAACCACGTGCCCCCTCCATCCCGAGTAACCTACGTCCATGTCTCGCTGGCTTCTGGACTACCTATGC [SwAp4]
- binding signal (ohm (RCTV-RCTB)): 955

Sequence: CTCCTCTGACTGTAACCACGTGGCACTGTTGTCATCACTGTCCCCCCCTAACTCGTCCGTGGCTTCTGGACTACCTATGC [SwAp6]
- binding signal (ohm (RCTV-RCTB)): 1290

Sequence: TCCTCTGACTGTAACCACGCAGCCACCATACTGTCCCGTTTGCCCCCGCCGATTCCGTCGGCTTCTGGACTACCTATGC [SwAp11]
- binding signal (ohm (RCTV-RCTB)): 373
